Test results as given in patent US20130177579A1 (BIOALLIANCE C V, published 2013).
One block for each substance: values may come before it.

How the values were obtained:
[1] = molecular target: human transferrin receptor expressed by Jurkat cells (human) (UniProt P02786); experiment: FACS, Jurkat cells, 1 ug
[2] = molecular target: human transferrin receptor expressed by normal human cells (RBC, PMN, lymphocytes, monocytes, platelets, HUVEC) (human) (UniProt P02786); experiment: FACS, HUVEC, 5 ug/ml
human transferrin receptor expressed by normal human cells (RBC, PMN, lymphocytes, monocytes, platelets, HUVEC) (human), sequence (P02786 whole entry G142S): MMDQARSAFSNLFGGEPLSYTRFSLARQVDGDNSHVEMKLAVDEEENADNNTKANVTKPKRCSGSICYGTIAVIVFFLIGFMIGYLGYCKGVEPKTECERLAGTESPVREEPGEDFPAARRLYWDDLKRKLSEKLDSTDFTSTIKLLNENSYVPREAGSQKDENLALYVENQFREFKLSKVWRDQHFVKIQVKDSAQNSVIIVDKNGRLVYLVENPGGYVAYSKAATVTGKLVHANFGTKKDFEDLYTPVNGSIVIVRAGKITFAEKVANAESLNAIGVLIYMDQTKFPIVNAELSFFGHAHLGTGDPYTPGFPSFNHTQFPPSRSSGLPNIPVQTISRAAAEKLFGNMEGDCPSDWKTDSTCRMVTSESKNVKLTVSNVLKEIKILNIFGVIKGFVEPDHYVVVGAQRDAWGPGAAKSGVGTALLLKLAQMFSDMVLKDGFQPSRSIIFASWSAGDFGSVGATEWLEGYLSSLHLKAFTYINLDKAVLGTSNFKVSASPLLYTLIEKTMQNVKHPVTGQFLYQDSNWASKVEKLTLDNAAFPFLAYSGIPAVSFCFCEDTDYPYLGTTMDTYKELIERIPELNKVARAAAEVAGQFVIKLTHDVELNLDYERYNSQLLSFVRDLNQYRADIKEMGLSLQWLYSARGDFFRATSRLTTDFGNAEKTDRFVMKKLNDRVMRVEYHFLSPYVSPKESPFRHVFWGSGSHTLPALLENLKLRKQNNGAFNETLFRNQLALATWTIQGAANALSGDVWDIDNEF

[3] = molecular target: human transferrin receptor expressed by normal human cells (RBC, PMN, lymphocytes, monocytes, platelets, HUVEC) (human) (UniProt P02786); experiment: FACS, PMN, donor D005
[4] = molecular target: human transferrin receptor expressed by normal human cells (RBC, PMN, lymphocytes, monocytes, platelets, HUVEC) (human) (UniProt P02786); experiment: FACS, PMN, donor D014
[5] = molecular target: human transferrin receptor expressed by normal human cells (RBC, PMN, lymphocytes, monocytes, platelets, HUVEC) (human) (UniProt P02786); experiment: FACS, PMN, donor D016
[6] = molecular target: human transferrin receptor expressed by normal human cells (RBC, PMN, lymphocytes, monocytes, platelets, HUVEC) (human) (UniProt P02786); experiment: FACS, PMN, donor D102
[7] = molecular target: human transferrin receptor expressed by normal human cells (RBC, PMN, lymphocytes, monocytes, platelets, HUVEC) (human) (UniProt P02786); experiment: FACS, RBC, donor D005
[8] = molecular target: human transferrin receptor expressed by normal human cells (RBC, PMN, lymphocytes, monocytes, platelets, HUVEC) (human) (UniProt P02786); experiment: FACS, RBC, donor D014
[9] = molecular target: human transferrin receptor expressed by normal human cells (RBC, PMN, lymphocytes, monocytes, platelets, HUVEC) (human) (UniProt P02786); experiment: FACS, RBC, donor D016
[10] = molecular target: human transferrin receptor expressed by normal human cells (RBC, PMN, lymphocytes, monocytes, platelets, HUVEC) (human) (UniProt P02786); experiment: FACS, RBC, donor D102
[11] = molecular target: human transferrin receptor expressed by nonhematopoietic cancer cells (human) (UniProt P02786); experiment: FACS, KLE cells, 5 ug
human transferrin receptor expressed by nonhematopoietic cancer cells (human), sequence (P02786 whole entry G142S): as above

[12] = molecular target: human transferrin receptor expressed by nonhematopoietic cancer cells (human) (UniProt P02786); experiment: FACS, PC3 cells, 5 ug
[13] = molecular target: human transferrin receptor expressed by nonhematopoietic cancer cells (human) (UniProt P02786); experiment: FACS, A549 cells, 5 ug
[14] = molecular target: human transferrin receptor expressed by nonhematopoietic cancer cells (human) (UniProt P02786); experiment: FACS, H358 cells, 5 ug
[15] = molecular target: human transferrin receptor expressed by nonhematopoietic cancer cells (human) (UniProt P02786); experiment: FACS, H520 cells, 5 ug
[16] = molecular target: human transferrin receptor expressed by nonhematopoietic cancer cells (human) (UniProt P02786); experiment: FACS, H727 cells, 5 ug
[17] = molecular target: human transferrin receptor expressed by nonhematopoietic cancer cells (human) (UniProt P02786); experiment: FACS, WiDr cells, 5 ug
[18] = molecular target: human transferrin receptor expressed by nonhematopoietic cancer cells (human) (UniProt P02786); experiment: FACS, 22Rv1 cells, 5 ug
[19] = molecular target: human transferrin receptor expressed by nonhematopoietic cancer cells (human) (UniProt P02786); experiment: FACS, DLD-1 cells, 5 ug
[20] = molecular target: human transferrin receptor expressed by nonhematopoietic cancer cells (human) (UniProt P02786); experiment: FACS, DU145 cells, 5 ug
[21] = molecular target: human transferrin receptor expressed by nonhematopoietic cancer cells (human) (UniProt P02786); experiment: FACS, OMC-3 cells, 5 ug
[22] = molecular target: human transferrin receptor expressed by nonhematopoietic cancer cells (human) (UniProt P02786); experiment: FACS, Hep G2 cells, 5 ug
[23] = molecular target: human transferrin receptor expressed by nonhematopoietic cancer cells (human) (UniProt P02786); experiment: FACS, Panc-1 cells, 5 ug
[24] = molecular target: human transferrin receptor expressed by nonhematopoietic cancer cells (human) (UniProt P02786); experiment: FACS, SNU-16 cells, 5 ug
[25] = molecular target: human transferrin receptor expressed by nonhematopoietic cancer cells (human) (UniProt P02786); experiment: FACS, COLO205 cells, 5 ug
[26] = molecular target: human transferrin receptor expressed by nonhematopoietic cancer cells (human) (UniProt P02786); experiment: FACS, HEC-1-A cells, 5 ug
[27] = molecular target: human transferrin receptor expressed by nonhematopoietic cancer cells (human) (UniProt P02786); experiment: FACS, NCI-N87 cells, 5 ug
[28] = molecular target: human transferrin receptor expressed by nonhematopoietic cancer cells (human) (UniProt P02786); experiment: FACS, SK-OV-3 cells, 5 ug
[29] = molecular target: human transferrin receptor expressed by nonhematopoietic cancer cells (human) (UniProt P02786); experiment: FACS, Kato III cells, 5 ug
[30] = molecular target: human transferrin receptor expressed by nonhematopoietic cancer cells (human) (UniProt P02786); experiment: FACS, SU.86.86 cells, 5 ug
[31] = molecular target: human transferrin receptor expressed by normal human cells (RBC, PMN, lymphocytes, monocytes, platelets, HUVEC) (human) (UniProt P02786); experiment: FACS, monocytes, donor D005
[32] = molecular target: human transferrin receptor expressed by normal human cells (RBC, PMN, lymphocytes, monocytes, platelets, HUVEC) (human) (UniProt P02786); experiment: FACS, monocytes, donor D014
[33] = molecular target: human transferrin receptor expressed by normal human cells (RBC, PMN, lymphocytes, monocytes, platelets, HUVEC) (human) (UniProt P02786); experiment: FACS, monocytes, donor D016
[34] = molecular target: human transferrin receptor expressed by normal human cells (RBC, PMN, lymphocytes, monocytes, platelets, HUVEC) (human) (UniProt P02786); experiment: FACS, monocytes, donor D102
[35] = molecular target: human transferrin receptor expressed by normal human cells (RBC, PMN, lymphocytes, monocytes, platelets, HUVEC) (human) (UniProt P02786); experiment: FACS, platelets, donor D005
[36] = molecular target: human transferrin receptor expressed by normal human cells (RBC, PMN, lymphocytes, monocytes, platelets, HUVEC) (human) (UniProt P02786); experiment: FACS, platelets, donor D014
[37] = molecular target: human transferrin receptor expressed by normal human cells (RBC, PMN, lymphocytes, monocytes, platelets, HUVEC) (human) (UniProt P02786); experiment: FACS, platelets, donor D016
[38] = molecular target: human transferrin receptor expressed by normal human cells (RBC, PMN, lymphocytes, monocytes, platelets, HUVEC) (human) (UniProt P02786); experiment: FACS, platelets, donor D102
[39] = molecular target: human transferrin receptor expressed by nonhematopoietic cancer cells (human) (UniProt P02786); experiment: FACS, MDA-MB-453 cells, 5 ug
[40] = molecular target: human transferrin receptor expressed by nonhematopoietic cancer cells (human) (UniProt P02786); experiment: FACS, Panc02.03B cells, 5 ug
[41] = molecular target: human transferrin receptor expressed by normal human cells (RBC, PMN, lymphocytes, monocytes, platelets, HUVEC) (human) (UniProt P02786); experiment: FACS, lymphocytes, donor D005
[42] = molecular target: human transferrin receptor expressed by normal human cells (RBC, PMN, lymphocytes, monocytes, platelets, HUVEC) (human) (UniProt P02786); experiment: FACS, lymphocytes, donor D014
[43] = molecular target: human transferrin receptor expressed by normal human cells (RBC, PMN, lymphocytes, monocytes, platelets, HUVEC) (human) (UniProt P02786); experiment: FACS, lymphocytes, donor D016
[44] = molecular target: human transferrin receptor expressed by normal human cells (RBC, PMN, lymphocytes, monocytes, platelets, HUVEC) (human) (UniProt P02786); experiment: FACS, lymphocytes, donor D102
[45] = molecular target: human transferrin receptor expressed by nonhematopoietic cancer cells (human) (UniProt P02786); experiment: FACS, Hep 3B2.1-7 cells, 5 ug
[46] = molecular target: human CD41a on platelets (human) (UniProt P08514); experiment: FACS, platelets, donor D005, positive control
human CD41a on platelets (human), sequence (P08514 32-1039): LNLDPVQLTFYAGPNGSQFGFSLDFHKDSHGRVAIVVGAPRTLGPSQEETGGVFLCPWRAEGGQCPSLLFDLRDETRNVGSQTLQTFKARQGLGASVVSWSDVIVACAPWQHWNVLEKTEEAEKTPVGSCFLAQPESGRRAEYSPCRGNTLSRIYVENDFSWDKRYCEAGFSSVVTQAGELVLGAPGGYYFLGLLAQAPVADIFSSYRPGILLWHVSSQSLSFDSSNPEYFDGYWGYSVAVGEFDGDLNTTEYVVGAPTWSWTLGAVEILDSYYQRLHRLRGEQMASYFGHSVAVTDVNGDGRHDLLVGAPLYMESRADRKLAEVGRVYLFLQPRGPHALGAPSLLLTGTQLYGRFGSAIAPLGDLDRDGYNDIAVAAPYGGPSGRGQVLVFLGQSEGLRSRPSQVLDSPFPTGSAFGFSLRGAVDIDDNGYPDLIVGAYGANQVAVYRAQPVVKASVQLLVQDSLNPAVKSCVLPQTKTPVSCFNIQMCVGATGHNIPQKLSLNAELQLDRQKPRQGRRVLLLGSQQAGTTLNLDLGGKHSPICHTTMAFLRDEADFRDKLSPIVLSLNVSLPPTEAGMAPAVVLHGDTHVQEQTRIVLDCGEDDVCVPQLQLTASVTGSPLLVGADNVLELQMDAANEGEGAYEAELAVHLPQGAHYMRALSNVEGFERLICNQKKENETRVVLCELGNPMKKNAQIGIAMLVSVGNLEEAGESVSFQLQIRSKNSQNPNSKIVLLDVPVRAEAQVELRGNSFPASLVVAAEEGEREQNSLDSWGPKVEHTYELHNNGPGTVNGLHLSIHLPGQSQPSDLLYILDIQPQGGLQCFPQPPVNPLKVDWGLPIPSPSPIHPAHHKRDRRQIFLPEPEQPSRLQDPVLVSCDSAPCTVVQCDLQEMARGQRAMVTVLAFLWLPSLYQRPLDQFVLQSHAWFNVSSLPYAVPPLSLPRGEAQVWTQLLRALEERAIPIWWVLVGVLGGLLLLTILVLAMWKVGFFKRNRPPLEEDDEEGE

[47] = molecular target: human CD41a on platelets (human) (UniProt P08514); experiment: FACS, platelets, donor D014, positive control
[48] = molecular target: human CD41a on platelets (human) (UniProt P08514); experiment: FACS, platelets, donor D016, positive control
[49] = molecular target: human CD41a on platelets (human) (UniProt P08514); experiment: FACS, platelets, donor D102, positive control

human transferrin receptor expressed by Jurkat cells (human), sequence (P02786 whole entry G142S): as the sequence (P02786 whole entry G142S) above

- % of gated cells [1]: 100%
Substance: anti-human transferrin receptor antibody MEM189 (Abcam Cat. No. ab1086)

- % positive cell binding [2]: 1%
- % positive cell binding [3]: < 1%
- % positive cell binding [4]: < 1%
- % positive cell binding [5]: < 1%
- % positive cell binding [6]: < 1%
- % positive cell binding [7]: < 1%
- % positive cell binding [8]: < 1%
- % positive cell binding [9]: < 1%
- % positive cell binding [10]: < 1%
- MFI [11]: 10 MFI
- MFI [12]: 3 MFI
- MFI [13]: 8 MFI
- MFI [14]: 4 MFI
- MFI [15]: 5 MFI
- MFI [16]: 9 MFI
- MFI [17]: 5 MFI
- MFI [18]: 7 MFI
- MFI [19]: 5 MFI
- MFI [20]: 4 MFI
- MFI [21]: 16 MFI
- MFI [22]: 4 MFI
- MFI [23]: 6 MFI
- MFI [24]: 5 MFI
- MFI [25]: 3 MFI
- MFI [26]: 13 MFI
- MFI [27]: 33 MFI
- MFI [28]: 5 MFI
- MFI [29]: 7 MFI
- MFI [30]: 6 MFI
- % positive cell binding [31]: 3%
- % positive cell binding [32]: < 1%
- % positive cell binding [33]: 1%
- % positive cell binding [34]: 2%
- % positive cell binding [35]: < 1%
- % positive cell binding [36]: < 1%
- % positive cell binding [37]: < 1%
- % positive cell binding [38]: < 1%
- MFI [39]: 4 MFI
- MFI [40]: 5 MFI
- % positive cell binding [41]: 4%
- % positive cell binding [42]: 1%
- % positive cell binding [43]: 1%
- % positive cell binding [44]: 3%
- MFI [45]: 5 MFI
Substance: isotype control mouse IgM, kappa (BD Pharmingen Cat. No. 557275) (antibody)

- % positive cell binding [46]: 79%
- % positive cell binding [47]: 97%
- % positive cell binding [48]: 95%
- % positive cell binding [49]: 78%
Substance: PE-conjugated anti-human CD41a (Southern Biotech Cat. No. 9391-09) (antibody)
